Target: PDGF-α receptor, endogenous on C3H10T1/2 mouse embryonic fibroblasts (mouse) (UniProt P26618)
Assay: cell-based or functional assay

Sequence of PDGF-α receptor, endogenous on C3H10T1/2 mouse embryonic fibroblasts (mouse) (P26618 25-1089): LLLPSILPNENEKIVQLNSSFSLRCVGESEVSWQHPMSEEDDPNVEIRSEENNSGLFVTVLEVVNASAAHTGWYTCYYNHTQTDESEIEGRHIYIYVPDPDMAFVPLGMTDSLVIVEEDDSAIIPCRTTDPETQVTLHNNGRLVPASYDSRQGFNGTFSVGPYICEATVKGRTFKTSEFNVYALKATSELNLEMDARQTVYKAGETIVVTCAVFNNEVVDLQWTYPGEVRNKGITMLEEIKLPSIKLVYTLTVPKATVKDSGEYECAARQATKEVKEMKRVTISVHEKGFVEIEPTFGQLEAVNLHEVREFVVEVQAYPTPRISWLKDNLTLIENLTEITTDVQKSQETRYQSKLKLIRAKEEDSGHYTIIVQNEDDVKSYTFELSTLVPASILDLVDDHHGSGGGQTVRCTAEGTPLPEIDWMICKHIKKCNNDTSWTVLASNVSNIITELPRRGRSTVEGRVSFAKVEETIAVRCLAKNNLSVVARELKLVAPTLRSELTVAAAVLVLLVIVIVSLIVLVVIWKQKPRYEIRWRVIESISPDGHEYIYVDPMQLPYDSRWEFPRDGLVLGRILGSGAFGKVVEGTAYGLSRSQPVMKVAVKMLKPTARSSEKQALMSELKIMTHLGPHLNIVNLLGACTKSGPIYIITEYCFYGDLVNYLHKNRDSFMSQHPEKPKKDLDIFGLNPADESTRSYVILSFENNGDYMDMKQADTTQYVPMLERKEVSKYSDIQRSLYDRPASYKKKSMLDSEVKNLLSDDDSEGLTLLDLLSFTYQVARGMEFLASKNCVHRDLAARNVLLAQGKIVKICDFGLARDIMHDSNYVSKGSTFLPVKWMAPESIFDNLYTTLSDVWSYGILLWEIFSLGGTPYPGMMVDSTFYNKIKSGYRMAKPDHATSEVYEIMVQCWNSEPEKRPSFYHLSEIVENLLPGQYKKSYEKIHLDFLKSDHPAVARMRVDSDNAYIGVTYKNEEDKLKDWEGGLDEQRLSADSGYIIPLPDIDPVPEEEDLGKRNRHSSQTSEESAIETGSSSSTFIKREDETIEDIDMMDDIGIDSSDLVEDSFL

- decrease in responses to sub-maximal concentrations of PDGF-BB (relative nuclear intensity of the FoxO1-clover reporter in C3H10T1/2 cells): 10%
Substance: neutralizing antibody to the PDGF-α receptor (#AF1062, R&D Systems)

Source: US20160290995A1, “METHODS OF SELECTING AKT AGONISTS OR ANTAGONISTS” (OREGON HEALTH & SCIENCE UNIVERSITY, priority 2015, published 2016)
